Article PMC4381594, “GCN5 inhibits XBP-1S-mediated transcription by antagonizing PCAF action” (Oncotarget, 2014)

Assays:
[1] = biological target: T1, XBP-1S, the active isoform of X-box binding protein 1 (human, UniProt P17861-2 1-376); test: co-IP; 293T cells co-transfected with PCAF and XBP-1S vectors with or without a GCN5 plasmid; IP with anti-XBP-1 antibody, immunoblot with anti-PCAF or anti-XBP-1; bands quantified by densitometry, PCAF normalised to precipitated XBP-1S; conditions: partners not purified
T1 construct: source: 293T, transfected, in lysate
T1 sequence (looked up): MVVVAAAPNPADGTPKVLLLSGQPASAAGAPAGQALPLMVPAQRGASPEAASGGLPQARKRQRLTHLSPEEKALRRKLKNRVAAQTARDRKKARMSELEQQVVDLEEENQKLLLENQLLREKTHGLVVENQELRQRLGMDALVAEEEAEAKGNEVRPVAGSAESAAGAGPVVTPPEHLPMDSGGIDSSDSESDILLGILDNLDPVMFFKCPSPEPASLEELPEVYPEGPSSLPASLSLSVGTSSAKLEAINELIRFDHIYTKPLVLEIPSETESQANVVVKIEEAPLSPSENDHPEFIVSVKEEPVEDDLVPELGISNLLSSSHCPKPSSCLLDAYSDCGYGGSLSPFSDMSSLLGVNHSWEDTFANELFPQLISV

[2] = biological target: T1, XBP-1S, the active isoform of X-box …; test: cell-based or functional assay

fold decrease of PCAF-XBP-1S binding with GCN5 overexpressed [1]: 4 fold
fold decrease in XBP-1S-mediated luciferase expression from the 5×UPRE-Luc reporter in HEK293 cells with GCN5 overexpressed [2]: > 5 fold
B1: general control nonderepressible 5 (GCN5) (enzyme, human, UniProt Q92830 1-837, looked up)
chain: MAEPSQAPTPAPAAQPRPLQSPAPAPTPTPAPSPASAPIPTPTPAPAPAPAAAPAGSTGTGGPGVGSGGAGSGGDPARPGLSQQQRASQRKAQVRGLPRAKKLEKLGVFSACKANETCKCNGWKNPKPPTAPRMDLQQPAANLSELCRSCEHPLADHVSHLENVSEDEINRLLGMVVDVENLFMSVHKEEDTDTKQVYFYLFKLLRKCILQMTRPVVEGSLGSPPFEKPNIEQGVLNFVQYKFSHLAPRERQTMFELSKMFLLCLNYWKLETPAQFRQRSQAEDVATYKVNYTRWLCYCHVPQSCDSLPRYETTHVFGRSLLRSIFTVTRRQLLEKFRVEKDKLVPEKRTLILTHFPKFLSMLEEEIYGANSPIWESGFTMPPSEGTQLVPRPASVSAAVVPSTPIFSPSMGGGSNSSLSLDSAGAEPMPGEKRTLPENLTLEDAKRLRVMGDIPMELVNEVMLTITDPAAMLGPETSLLSANAARDETARLEERRGIIEFHVIGNSLTPKANRRVLLWLVGLQNVFSHQLPRMPKEYIARLVFDPKHKTLALIKDGRVIGGICFRMFPTQGFTEIVFCAVTSNEQVKGYGTHLMNHLKEYHIKHNILYFLTYADEYAIGYFKKQGFSKDIKVPKSRYLGYIKDYEGATLMECELNPRIPYTELSHIIKKQKEIIKKLIERKQAQIRKVYPGLSCFKEGVRQIPVESVPGIRETGWKPLGKEKGKELKDPDQLYTTLKNLLAQIKSHPSAWPFMEPVKKSEAPDYYEVIRFPIDLKTMTERLRSRYYVTRKLFVADLQRVIANCREYNPPDSEYCRCASALEKFFYFKLKEGGLIDK
notes: No tag is named for this plasmid; precipitated and detected with anti-GCN5 (ab71965); also called GCN5 WT; source: 293T, transfected, in lysate
